Experimental data reported in publication PMC3449402.

Biological target: MAb<EGFR> (human)
Assay: SPR

- Kd: 120 nM
Substance: soluble construct of the FcγRIIIa ectodomain (from UniProt P08637 17-208) (receptor)
